Measured values: IntAct's records for PubMed 12626503

B1: Rho guanine nucleotide exchange factor 7 (Mus musculus), Q9ES28-2 (parent)
chain: MNSAEQTVTWLITLGVLESPKKTISDPEVFLQASLKDGVVLCRLLERLLPGTIEKVYPEPRNESECLSNIREFLRACGASLRLETFDANDLYQGQNFNKVLSSLVTLNKVTADIGLGSDSVCARPSSHRIKSFDSLGSQSSHSRTSKLLQSQYRSLDMTDNTNSQLVVRAKFNFQQTNEDELSFSKGDVIHVTRVEEGGWWEGTHNGRTGWFPSNYVREIKPSEKPVSPKSGTLKSPPKGFDTTAINKSYYNVVLQNILETEHEYSKELQSVLSTYLRPLQTSDKLSSANTSYLMGNLEEISSFQQVLVQSLEECTKSPEAQQRVGGCFLSLMPQMRTLYLAYCANHPSAVSVLTEHSEDLGEFMETKGASSPGILVLTTGLSKPFMRLDKYPTLLKELERHMEDYHPDRQDIQKSMTAFKNLSAQCQEVRKRKELELQILTEPIRSWEGDDIKTLGSVTYMSQVTIQCAGSEEKNERYLLLFPNLLLMLSASPRMSGFIYQGKLPTTGMTITKLEDSENHRNAFEISGSMIERILVSCTSQQDLHEWVEHLQKQTKVTSVSNPTIKPHSVPSHTLPSHPLTPSSKHADSKPVALTPAYHTLPHPSHHGTPHTTISWGPLEPPKTPKPWSLSCLRPAPPLRPSAALCYKEDLSKSPKTMKKLLPKRKPERKPSDEEFAVRKSTAALEEDAQILKVIEAYCTSAKTRQTLNSSSRKESAPQVLLPEEEKIIVEETKSNGQTVIEEKSLVDTVYALKDEVQELRQDNKKMKKSLEEEQRARKDLEKLVRKVLKNMNDPAWDETNL
partner: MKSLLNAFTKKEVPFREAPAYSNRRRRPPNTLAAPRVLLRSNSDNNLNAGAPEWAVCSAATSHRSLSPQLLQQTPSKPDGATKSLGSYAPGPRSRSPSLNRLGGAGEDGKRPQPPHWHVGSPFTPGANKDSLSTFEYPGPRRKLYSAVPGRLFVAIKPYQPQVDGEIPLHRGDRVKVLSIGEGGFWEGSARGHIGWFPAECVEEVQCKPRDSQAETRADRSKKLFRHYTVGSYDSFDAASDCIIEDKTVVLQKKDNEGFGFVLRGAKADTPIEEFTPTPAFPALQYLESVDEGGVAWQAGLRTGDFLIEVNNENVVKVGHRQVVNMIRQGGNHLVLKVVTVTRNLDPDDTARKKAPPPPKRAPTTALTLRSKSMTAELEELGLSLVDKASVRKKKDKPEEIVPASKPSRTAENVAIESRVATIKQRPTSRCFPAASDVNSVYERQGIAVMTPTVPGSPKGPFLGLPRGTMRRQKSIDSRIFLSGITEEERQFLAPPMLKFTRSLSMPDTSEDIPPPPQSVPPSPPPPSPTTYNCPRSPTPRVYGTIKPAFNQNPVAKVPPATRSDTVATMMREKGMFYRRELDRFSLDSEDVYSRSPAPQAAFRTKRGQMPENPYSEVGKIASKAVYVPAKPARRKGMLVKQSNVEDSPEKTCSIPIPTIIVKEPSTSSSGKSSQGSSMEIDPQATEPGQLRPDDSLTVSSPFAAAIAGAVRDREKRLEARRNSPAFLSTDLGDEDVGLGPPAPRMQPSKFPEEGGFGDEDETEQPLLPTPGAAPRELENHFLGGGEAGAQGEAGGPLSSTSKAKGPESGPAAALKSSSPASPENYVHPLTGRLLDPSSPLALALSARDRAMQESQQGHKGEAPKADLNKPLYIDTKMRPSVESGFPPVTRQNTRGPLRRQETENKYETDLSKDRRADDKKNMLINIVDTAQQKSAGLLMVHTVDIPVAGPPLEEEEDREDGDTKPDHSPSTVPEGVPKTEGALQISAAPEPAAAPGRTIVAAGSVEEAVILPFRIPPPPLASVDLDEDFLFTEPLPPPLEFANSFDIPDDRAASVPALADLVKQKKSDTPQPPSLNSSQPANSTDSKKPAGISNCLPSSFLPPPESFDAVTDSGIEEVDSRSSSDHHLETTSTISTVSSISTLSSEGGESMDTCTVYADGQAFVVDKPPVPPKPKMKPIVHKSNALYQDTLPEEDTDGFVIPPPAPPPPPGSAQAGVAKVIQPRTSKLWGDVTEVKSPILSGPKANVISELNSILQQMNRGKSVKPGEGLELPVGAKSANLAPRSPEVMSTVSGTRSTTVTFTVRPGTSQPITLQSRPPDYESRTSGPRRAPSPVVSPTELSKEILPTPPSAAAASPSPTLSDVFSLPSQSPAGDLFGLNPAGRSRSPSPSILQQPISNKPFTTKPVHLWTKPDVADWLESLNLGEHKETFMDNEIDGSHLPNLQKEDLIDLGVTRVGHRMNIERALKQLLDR
B2: Rho guanine nucleotide exchange factor 7 (Mus musculus), Q9ES28-2 (parent)
chain: B1 chain

Variants of: B1
Details: with shan2_rat Shank2, Q9QX74

Row | effect of a mutation on the interaction | Variant
1 | disrupting interaction | L646A

Variants of: B2
Details: with shan1_rat Shank1, Q9WV48
Sequence of shan1_rat Shank1, Q9WV48 (Q9WV48 whole entry): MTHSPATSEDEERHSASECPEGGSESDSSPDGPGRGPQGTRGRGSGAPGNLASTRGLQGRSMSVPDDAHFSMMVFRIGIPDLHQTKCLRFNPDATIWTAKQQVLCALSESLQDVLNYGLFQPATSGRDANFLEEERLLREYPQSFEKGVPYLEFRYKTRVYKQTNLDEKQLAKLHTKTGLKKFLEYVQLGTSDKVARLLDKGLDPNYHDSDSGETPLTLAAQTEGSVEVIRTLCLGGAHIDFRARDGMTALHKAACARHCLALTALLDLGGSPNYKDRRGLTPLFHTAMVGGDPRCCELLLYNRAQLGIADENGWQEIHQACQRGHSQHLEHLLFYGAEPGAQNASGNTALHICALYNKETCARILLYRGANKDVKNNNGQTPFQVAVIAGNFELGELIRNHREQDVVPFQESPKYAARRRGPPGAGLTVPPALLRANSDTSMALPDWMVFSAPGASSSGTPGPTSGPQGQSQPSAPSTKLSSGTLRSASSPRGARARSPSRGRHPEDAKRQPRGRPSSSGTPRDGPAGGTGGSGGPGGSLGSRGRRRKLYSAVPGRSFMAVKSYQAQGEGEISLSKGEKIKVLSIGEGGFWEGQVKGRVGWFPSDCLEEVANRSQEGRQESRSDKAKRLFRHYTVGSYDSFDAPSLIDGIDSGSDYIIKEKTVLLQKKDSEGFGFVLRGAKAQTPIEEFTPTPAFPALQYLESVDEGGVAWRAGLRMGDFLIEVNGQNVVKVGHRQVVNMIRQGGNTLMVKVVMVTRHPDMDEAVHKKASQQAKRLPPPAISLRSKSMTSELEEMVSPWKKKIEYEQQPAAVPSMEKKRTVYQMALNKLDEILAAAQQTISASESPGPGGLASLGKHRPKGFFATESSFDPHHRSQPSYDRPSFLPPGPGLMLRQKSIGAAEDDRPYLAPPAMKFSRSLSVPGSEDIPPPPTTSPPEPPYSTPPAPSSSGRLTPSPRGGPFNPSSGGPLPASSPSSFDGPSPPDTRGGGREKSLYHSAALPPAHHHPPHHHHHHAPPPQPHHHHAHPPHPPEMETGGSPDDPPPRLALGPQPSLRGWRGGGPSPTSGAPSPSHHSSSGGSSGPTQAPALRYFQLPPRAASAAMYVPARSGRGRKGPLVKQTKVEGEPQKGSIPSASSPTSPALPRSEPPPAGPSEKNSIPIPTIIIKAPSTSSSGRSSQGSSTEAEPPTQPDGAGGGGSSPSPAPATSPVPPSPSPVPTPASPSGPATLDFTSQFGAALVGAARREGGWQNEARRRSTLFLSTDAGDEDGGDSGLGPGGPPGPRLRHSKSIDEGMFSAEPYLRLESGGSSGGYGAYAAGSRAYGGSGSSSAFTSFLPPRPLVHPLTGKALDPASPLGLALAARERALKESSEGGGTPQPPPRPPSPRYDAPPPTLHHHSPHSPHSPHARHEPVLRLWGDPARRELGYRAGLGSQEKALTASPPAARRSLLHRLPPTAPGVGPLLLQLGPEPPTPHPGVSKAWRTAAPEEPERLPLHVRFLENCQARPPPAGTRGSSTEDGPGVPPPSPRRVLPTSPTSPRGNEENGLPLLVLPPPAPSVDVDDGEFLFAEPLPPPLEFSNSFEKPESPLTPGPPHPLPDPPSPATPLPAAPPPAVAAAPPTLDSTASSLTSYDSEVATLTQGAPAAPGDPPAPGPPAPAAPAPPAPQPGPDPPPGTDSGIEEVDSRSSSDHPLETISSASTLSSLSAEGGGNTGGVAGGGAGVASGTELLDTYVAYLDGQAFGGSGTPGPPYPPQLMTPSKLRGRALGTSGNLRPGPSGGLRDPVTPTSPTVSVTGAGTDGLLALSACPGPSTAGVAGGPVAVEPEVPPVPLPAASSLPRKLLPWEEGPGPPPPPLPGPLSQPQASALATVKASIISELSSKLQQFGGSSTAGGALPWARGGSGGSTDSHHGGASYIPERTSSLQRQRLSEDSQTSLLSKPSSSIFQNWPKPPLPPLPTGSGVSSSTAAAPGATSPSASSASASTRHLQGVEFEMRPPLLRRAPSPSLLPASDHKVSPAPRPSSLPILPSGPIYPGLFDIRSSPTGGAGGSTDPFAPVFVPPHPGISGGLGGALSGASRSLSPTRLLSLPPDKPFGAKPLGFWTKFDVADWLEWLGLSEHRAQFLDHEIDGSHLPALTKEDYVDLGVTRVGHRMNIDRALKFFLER

Row | effect of a mutation on the interaction | Variant
2 | disrupting interaction | L646A
